Laboratory results reported in the supplement of paper PMC7877785.
± gives the uncertainty stated by the source.

Assay: self-splicing fitness, log relative to wild type (ln ratio); higher = more splicing; Tetrahymena group I intron in knt gene, E. coli kanamycin selection, DiMSum; sequences stand for … in CUCUCU…GGAGGGAAAAGUUAUCAGGCAUGCACCUGGUAGCUAGUCUUUAAACCAAUAGAUUGCAUCGGUUUAAAAGGCAAGACCGUCAAAUUGCGGGAAAGGGGUCAACAGCCGUUCAGUACCAAGUCUCAGGGGAAACUUUGAGAUGGCCUUGCAAAGGGUAUGGUAAUAAGCUGACGGACAUGGUCCUAACCACGCAGCCAAGUCCUAAGUCAACAGAUCUUCUGUUGAUAUGGAUGCAGUUCACAGACUAAAUGUCGGUCGGGGAAGAUGUAUUCUUCUCAUAAGAUAUAGUCGGACCUCUCCUUAAUGGGAGCUAGCGGAUGAAGUGAUGCAACACUGGAGCCGCUGGGAACUAAUUUGUAUGCGAAAGUAUAUUGAUUAGUUUUGGAGUACUCGUGGUCG
Summary of the method: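 Library with all eight P1ex-region intron nucleotides randomised, intron inside the knt kanamycin-resistance gene on pET-22b(+), in E. coli BL21(DE3). Cells grew overnight at 37°C or 30°C on LB agar with or without 25 μg/mL kanamycin (plus 100 μg/mL carbenicillin, 50 μM IPTG, 0.2% rhamnose), in six replicate transformations. Pooled colonies were amplicon-sequenced on Illumina HiSeq 2500. DiMSum fitness is the error-weighted combination of wild-type-normalised replicate fold changes, kanamycin versus none.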

| Sequence | self-splicing fitness (ln) (30 °C) | self-splicing fitness (ln) (37 °C) |
| --- | --- | --- |
| AUCCAGCAAUAUUACGUUUA | -1.81 ± 0.076 | -1.01 ± 0.081 |
| AUCGAGCAAUAUUACGAAAA | -3.6 ± 0.39 | -2.1 ± 0.32 |
| AUCGAGCAAUAUUACGAACA | -2.91 ± 0.24 | -1.27 ± 0.2 |
| AUCGAGCAAUAUUACGAAGU | -2.62 ± 0.18 | -1.49 ± 0.18 |
| AUCGAGCAAUAUUACGACCU | -0.95 ± 0.092 | -0.344 ± 0.15 |
| AUCGAGCAAUAUUACGAUCC | -2.13 ± 0.46 | – |
| AUCGAGCAAUAUUACGCAAA | -2.86 ± 0.16 | -2.38 ± 0.26 |
| AUCGAGCAAUAUUACGCAUA | – | -1.54 ± 0.36 |
| AUCGAGCAAUAUUACGCGGU | -2.9 ± 0.27 | -1.4 ± 0.22 |
| AUCGAGCAAUAUUACGCUGG | -2.78 ± 0.21 | -2.96 ± 0.2 |
| AUCGAGCAAUAUUACGCUGU | -2.24 ± 0.18 | -3.35 ± 0.37 |
| AUCGAGCAAUAUUACGGAAC | -2.61 ± 0.31 | -2.07 ± 0.4 |
| AUCGAGCAAUAUUACGGAAU | -3.47 ± 0.21 | -1.79 ± 0.18 |
| AUCGAGCAAUAUUACGGACA | -1.98 ± 0.38 | -1.41 ± 0.42 |
| AUCGAGCAAUAUUACGGCCA | -1.35 ± 0.41 | -1.47 ± 0.37 |
| AUCGAGCAAUAUUACGGCCC | -3.15 ± 0.35 | 1.32 ± 0.32 |
| AUCGAGCAAUAUUACGGCUU | -3.88 ± 0.3 | -2.58 ± 0.29 |
| AUCGAGCAAUAUUACGGGAC | -2.89 ± 0.27 | -1.11 ± 0.19 |
| AUCGAGCAAUAUUACGGGAG | -3.52 ± 0.25 | -2.5 ± 0.29 |
| AUCGAGCAAUAUUACGGGGA | -2.83 ± 0.22 | -1.18 ± 0.15 |
| AUCGAGCAAUAUUACGGUCG | -2.73 ± 0.38 | – |
| AUCGAGCAAUAUUACGUCAU | -2.35 ± 0.14 | -1.65 ± 0.15 |
| AUCGAGCAAUAUUACGUGGU | -3.23 ± 0.15 | -2.72 ± 0.14 |
| AUCGAGCAAUAUUACGUGUC | -3.76 ± 0.22 | -0.765 ± 0.13 |
| AUCGAGCAAUAUUACGUUAU | -3.5 ± 0.26 | -2.59 ± 0.28 |

| Sequence | self-splicing fitness (ln) (30 °C) | self-splicing fitness (ln) (37 °C) |
| --- | --- | --- |
| AUCGAGCAAUAUUACGUUCC | -1.89 ± 0.24 | -2.02 ± 0.26 |
| AUCGAGCAAUAUUACGUUUG | -4.29 ± 0.3 | -2.05 ± 0.21 |
| AUCUAGCAAUAUUACGAAGA | -1.45 ± 0.14 | -1.67 ± 0.15 |
| AUCUAGCAAUAUUACGACCA | -0.438 ± 0.12 | -0.302 ± 0.14 |
| AUCUAGCAAUAUUACGACUC | -0.0532 ± 0.28 | – |
| AUCUAGCAAUAUUACGAGUC | -4.11 ± 0.36 | -2.19 ± 0.25 |
| AUCUAGCAAUAUUACGAGUU | -2.66 ± 0.16 | -0.737 ± 0.14 |
| AUCUAGCAAUAUUACGAUCA | -1.92 ± 0.14 | -0.116 ± 0.18 |
| AUCUAGCAAUAUUACGAUGC | -1.74 ± 0.13 | -1.33 ± 0.16 |
| AUCUAGCAAUAUUACGCAUG | -1.88 ± 0.13 | -0.806 ± 0.12 |
| AUCUAGCAAUAUUACGCCAG | -2.77 ± 0.26 | -2.17 ± 0.25 |
| AUCUAGCAAUAUUACGCGAA | -2 ± 0.24 | -0.373 ± 0.14 |
| AUCUAGCAAUAUUACGCGCC | -0.659 ± 0.17 | -0.398 ± 0.16 |
| AUCUAGCAAUAUUACGCUUA | -1.44 ± 0.1 | -0.971 ± 0.096 |
| AUCUAGCAAUAUUACGGAAG | -1.99 ± 0.12 | -0.947 ± 0.15 |
| AUCUAGCAAUAUUACGGCAC | -1.5 ± 0.13 | -0.819 ± 0.17 |
| AUCUAGCAAUAUUACGGUGA | -1.75 ± 0.11 | -0.608 ± 0.13 |
| AUCUAGCAAUAUUACGGUUG | -2.66 ± 0.15 | -2.45 ± 0.19 |
| AUCUAGCAAUAUUACGUGAA | -2.52 ± 0.12 | -0.861 ± 0.12 |
| AUCUAGCAAUAUUACGUGCA | -0.394 ± 0.15 | -0.423 ± 0.18 |
| AUCUAGCAAUAUUACGUGGA | -2.71 ± 0.24 | -2.91 ± 0.26 |
| AUCUAGCAAUAUUACGUGUU | -2.71 ± 0.17 | -2.54 ± 0.17 |
| AUCUAGCAAUAUUACGUUAG | -3.26 ± 0.19 | -2.67 ± 0.24 |
| AUCUAGCAAUAUUACGUUUC | -2.64 ± 0.35 | -2.9 ± 0.47 |
| AUGAAGCAAUAUUACGAAAC | -2.04 ± 0.2 | -0.541 ± 0.3 |

| Sequence | self-splicing fitness (ln) (30 °C) | self-splicing fitness (ln) (37 °C) |
| --- | --- | --- |
| AUGAAGCAAUAUUACGACGG | -0.0267 ± 0.085 | 0.216 ± 0.14 |
| AUGAAGCAAUAUUACGAGCG | 0.0672 ± 0.066 | 0.405 ± 0.085 |
| AUGAAGCAAUAUUACGAUCG | 0.0492 ± 0.071 | 0.821 ± 0.11 |
| AUGAAGCAAUAUUACGCACU | 0.079 ± 0.14 | 0.992 ± 0.22 |
| AUGAAGCAAUAUUACGCCAU | -1.17 ± 0.082 | -0.85 ± 0.12 |
| AUGAAGCAAUAUUACGCUAG | -0.164 ± 0.07 | 0.337 ± 0.086 |
| AUGAAGCAAUAUUACGCUCG | -0.0634 ± 0.1 | 0.31 ± 0.16 |
| AUGAAGCAAUAUUACGGCGA | 0.267 ± 0.082 | 0.989 ± 0.11 |
| AUGAAGCAAUAUUACGGCGG | -0.365 ± 0.083 | 0.476 ± 0.11 |
| AUGAAGCAAUAUUACGGCUG | 0.352 ± 0.066 | 0.0954 ± 0.087 |
| AUGAAGCAAUAUUACGGUCA | 0.145 ± 0.07 | 0.605 ± 0.1 |
| AUGAAGCAAUAUUACGGUCC | -0.305 ± 0.12 | 0.363 ± 0.14 |
| AUGAAGCAAUAUUACGGUGG | -1.87 ± 0.069 | -1.92 ± 0.12 |
| AUGAAGCAAUAUUACGGUUG | -0.993 ± 0.11 | -1.49 ± 0.12 |
| AUGAAGCAAUAUUACGUAAC | -2.45 ± 0.18 | 0.328 ± 0.16 |
| AUGAAGCAAUAUUACGUAAG | -1.05 ± 0.057 | -0.409 ± 0.083 |
| AUGAAGCAAUAUUACGUCUA | 0.344 ± 0.094 | 0.623 ± 0.11 |
| AUGAAGCAAUAUUACGUGAC | -2.85 ± 0.13 | -1.63 ± 0.15 |
| AUGAAGCAAUAUUACGUUCA | 0.00482 ± 0.072 | 0.318 ± 0.1 |
| AUGAAGCAAUAUUACGUUCC | -0.618 ± 0.086 | -0.0585 ± 0.11 |
| AUGAAGCAAUAUUACGUUGA | -2.39 ± 0.1 | -0.85 ± 0.12 |
| AUGCAGCAAUAUUACGAAAC | -2.82 ± 0.46 | -0.989 ± 0.27 |
| AUGCAGCAAUAUUACGAGAG | -4.15 ± 0.27 | -1.16 ± 0.12 |
| AUGCAGCAAUAUUACGAGAU | -3 ± 0.15 | -1.54 ± 0.12 |
| AUGCAGCAAUAUUACGAUCA | -0.908 ± 0.14 | -0.711 ± 0.14 |

| Sequence | self-splicing fitness (ln) (30 °C) | self-splicing fitness (ln) (37 °C) |
| --- | --- | --- |
| AUGCAGCAAUAUUACGAUUU | -0.306 ± 0.058 | -0.153 ± 0.074 |
| AUGCAGCAAUAUUACGCAGU | -3.23 ± 0.16 | -1.69 ± 0.12 |
| AUGCAGCAAUAUUACGCCCG | -1.22 ± 0.2 | -0.571 ± 0.29 |
| AUGCAGCAAUAUUACGCCGC | -0.963 ± 0.28 | – |
| AUGCAGCAAUAUUACGCGUG | -3.92 ± 0.17 | -2.59 ± 0.18 |
| AUGCAGCAAUAUUACGCUCC | -2.02 ± 0.29 | 0.0573 ± 0.36 |
| AUGCAGCAAUAUUACGCUGA | -2.82 ± 0.19 | -1.35 ± 0.13 |
| AUGCAGCAAUAUUACGCUUC | -4.78 ± 0.34 | -3.07 ± 0.34 |
| AUGCAGCAAUAUUACGGAUC | -2.52 ± 0.15 | -2.7 ± 0.14 |
| AUGCAGCAAUAUUACGGAUG | -4.6 ± 0.29 | -1.08 ± 0.13 |
| AUGCAGCAAUAUUACGGCAC | -1.72 ± 0.25 | -1.29 ± 0.26 |
| AUGCAGCAAUAUUACGGCCU | 0.794 ± 0.13 | 0.0607 ± 0.16 |
| AUGCAGCAAUAUUACGGUCG | -1.41 ± 0.11 | -0.972 ± 0.14 |
| AUGCAGCAAUAUUACGGUGC | -3.79 ± 0.11 | -3.02 ± 0.13 |
| AUGCAGCAAUAUUACGUACG | -2.15 ± 0.1 | -0.573 ± 0.12 |
| AUGCAGCAAUAUUACGUAGA | -1.71 ± 0.079 | -1.09 ± 0.1 |
| AUGCAGCAAUAUUACGUCCA | -1.72 ± 0.11 | -0.786 ± 0.11 |
| AUGCAGCAAUAUUACGUCCC | -1.53 ± 0.42 | – |
| AUGCAGCAAUAUUACGUCUG | -3.64 ± 0.35 | -0.405 ± 0.16 |
| AUGCAGCAAUAUUACGUGAC | -3.3 ± 0.21 | -2.08 ± 0.16 |
| AUGCAGCAAUAUUACGUGCU | -2.52 ± 0.1 | -1.9 ± 0.098 |
| AUGGAGCAAUAUUACGAAAG | -2.94 ± 0.24 | -2.11 ± 0.32 |
